Experimental data from patent US20020127594A1 (Takeda / Millennium, published 2002).

Target: p185 (erbB2), 185 kDa receptor-type tyrosine kinase of the EGFR family, in MDA-MB453 breast adenocarcinoma … (UniProt P04626 23-1255, limits assumed)
Assay: cell-based or functional assay

B1: Don-1 EGF domain-containing fusion polypeptide (EGF domain and flanking amino acids 85-154 of murine Don-1, C-terminal Flag epitope tag), secreted by … (ligand, not shown: small tags and cut ends)
chain: LHVNSVSTTLSSWSGHARKCNETAKSYCVNGGVCYYIEGINQLSCKCPNGFFGQRCLEKLPLRLYMPDPK
  phosphorylation of the 185 kDa protein in MDA-MB453 cells (antiphosphotyrosine Western blot): ~10 fold
